Assay [1] deals with T1, recombinant human IL4Rα-his protein (in house made) (human, UniProt P24394 26-232, limits assumed).
T1 construct: also called Human IL4Ra-his
Nature of the assay: competitive ELISA: coated human IL4Rα-his, blocked ligand biotin human IL4.

The target in assay [2] is T2, human IL4Rα expressed on 293F-IL4Rα cells (human, UniProt P24394 26-825).
T2 construct: whole, on cells; also called cell surface human IL4Rα
Nature of the assay: flow cytometry on 293F-IL4Rα cells, blocked ligand biotin human IL4.

In assay [3] the target is T1, recombinant human IL4Rα-his protein (in …). Nature of the assay: competitive ELISA, blocks biotin-IL4 binding to coated IL4Rα-his. On the procedure:
Serially diluted anti-IL4Rα antibodies or the controls (starting at 80 nM with a 4-fold serial dilution) in 2.5% w/v non-fatty milk in PBST, 100 μl per well, were added to the IL4Rα bound plates, and incubated with the human IL4Rα-his proteins at 37° C. for 40 minutes. Plates were washed 4 times using wash buffer, and then added and incubated for 40 minutes at 37° C. with 100 μl/well of 0.56 nM biotin-labeled human IL4 protein (Sino biological inc., Cat #11846-HNAE). Plates were washed again using wash buffer. Thereafter, the plates were added with 100 μl/well of streptavidin conjugated HRP (1:10000 dilution in PBST buffer, Jackson Immunoresearch, Cat #016-030-084) and incubated for 40 minutes at 37° C. Plates were washed again using wash buffer. Finally, TMB was added and the reaction was stopped using 1M H₂SO₄, and the absorbance was read at 450 nm. Data was analyzed using Graphpad Prism software and IC₅₀ values were reported.
(An ELISA detects its analyte on a solid surface through an enzyme-linked reagent.)

The target of assay [4] is T3, cynomolgus monkey IL4Rα-his protein (cynomolgus monkey, UniProt A0A2K5V580 33-239).
T3 construct: Bought protein; also called Cynomolgus IL4Rα; Cyno-IL4Rα-his; not shown: his tag
Briefly: indirect ELISA on coated cynomolgus IL4Rα-his.

The target in assay [5] is T2, human IL4Rα expressed on 293F-IL4Rα …. Briefly: flow cytometry, 293F-IL4Rα cells. On the procedure:
Then, 2×10⁵ cells per well in 96 well-plates were incubated in 100 μL of the anti-IL4Rα antibodies or controls of various concentrations (starting at 80 nM with a 4-fold serial dilution) in FACS buffer for 40 minutes on ice. […] Following an incubation of 40 minutes at 4° C. in dark, cells were washed three times and resuspended in FACS buffer. Fluorescence was measured using a Becton Dickinson FACS Canto II-HTS equipment. Data was analyzed using Graphpad Prism software and EC₅₀ values were reported.
In general terms: Flow cytometry measures light scatter and fluorescence of single cells or particles in a stream.

The target is the same in assay [6]. Nature of the assay: flow cytometry on 293F-IL4Rα cells.
The target of assay [7] is human IL4Rα expressed on HEK293T-IL4Rα-STAT6-STAT6LUC-LB2 cells (human, UniProt P24394 26-825). Nature of the assay: cell-based or functional assay.
For assay [8], the target named is T1, recombinant human IL4Rα-his protein (in …). Nature of the assay: competitive ELISA: antibody mixed with biotin human IL4Rα-his, competitor plate-coated Benchmark.
For assay [9], the target named is T2, human IL4Rα expressed on 293F-IL4Rα …. Briefly: flow cytometry, blocks biotin-IL4 binding to 293F-IL4Rα cells. How it is done: Then, 1×10⁵ cells per well in 96 well-plates were incubated in 100 μL of the anti-IL4Rα antibodies or controls of various concentrations (starting at 80 nM with a 4-fold serial dilution) in FACS buffer for 40 minutes on ice. The plates were washed twice with FACS buffer, and added and incubated for 40 minutes at 4° C. in dark with 100 μl/well 1.67 nM biotin-labeled human IL4 protein (Sino biological inc., Cat #11846-HNAE). The plates were washed twice with FACS buffer, and then added and incubated for 40 minutes at 4° C. in dark with 100 μl/well R-Phycoerythrin Streptavidin (1:500 dilution in FACS buffer, Jackson Immunoresearch, Cat #016-110-084). Cells were washed twice and resuspended in FACS buffer. Fluorescence was measured using a Becton Dickinson FACS Canto II-HTS equipment. Data was analyzed using Graphpad Prism software and IC₅₀ values were reported.

The target in assay [10] is T4, marmoset monkey IL4Rα-his protein (marmoset monkey).
T4 construct: Custom made by Sino biological; no cleavage site stated; also called cal-IL4Rα-his; Cal-IL4Rα
T4 chain: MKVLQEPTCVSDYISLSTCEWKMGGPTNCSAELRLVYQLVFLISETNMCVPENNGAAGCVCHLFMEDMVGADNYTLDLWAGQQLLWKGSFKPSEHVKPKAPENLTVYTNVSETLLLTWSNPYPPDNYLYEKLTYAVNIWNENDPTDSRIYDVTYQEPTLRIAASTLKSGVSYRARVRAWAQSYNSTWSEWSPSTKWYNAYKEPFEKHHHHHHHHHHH
Nature of the assay: indirect ELISA on coated cal-IL4Rα-his.

Assay [11] addresses T1, recombinant human IL4Rα-his protein (in …). Nature of the assay: capture ELISA: antibody captured on anti-IgG Fc plate, biotin human IL4Rα-his detected.
Assay [12] shares this target. Briefly: SPR (Biacore), antibody captured, IL4Rα-his flowed.
Assay [13] has as its target T4, marmoset monkey IL4Rα-his protein. Briefly: indirect ELISA, coated cal-IL4Rα-his.
For assay [14], the target named is T3, cynomolgus monkey IL4Rα-his protein. Briefly: indirect ELISA, coated cyno IL4Rα-his.
The target in assay [15] is T1, recombinant human IL4Rα-his protein (in …). Nature of the assay: competitive ELISA, blocks biotin-IL4Rα-his binding to coated Benchmark (competitor). On the procedure: The ability of the anti-IL4Rα antibodies of the disclosure to block benchmark-human IL4Rα binding was measured in a competitive ELISA assay. Briefly, the benchmark was coated on 96-well micro plates at 2 μg/mL in PBS, 100 μl per well, and incubated overnight at 4° C. The next day, plates were washed with wash buffer (PBS+0.05% w/v Tween-20, PBST), and blocked with 5% w/v non-fatty milk in PBST for 2 hours at 37° C. tiring plate blocking, the anti-IL4Rα antibodies of the disclosure or controls were diluted with biotin labeled human IL4Rα-his proteins (prepared in-house with SEQ ID NO: 57, 0.55 nM in 2.5% w/v non-fatty milk in PBST), starting at 100 nM with a 4-fold serial dilution, and incubated at 25° C. for 40 minutes. After plate washing, the antibody/IL4Rα-his mixtures were added to benchmark coated plates, 100 μl per well. After incubation at 37° C. for 40 minutes, plates were washed using wash buffer. Then the plates were added and incubated with 100 μl/well streptavidin conjugated HRP for 40 minutes at 37° C. to detect biotin-labeled human IL4Rα-his bound to plates. Plates were washed again using wash buffer. Finally, TMB was added and the reaction was stopped using 1M H₂SO₄, and the absorbance was read at 450 nm. Data was analyzed using Graphpad Prism software and IC₅₀ values were reported.

Assay [16] shares this target. Nature of the assay: capture ELISA, biotin-IL4Rα-his.
Assay [17] shares this target. Nature of the assay: SPR (Biacore), antibody captured, IL4Rα-his flowed. The source holds these as a separate data set. Background: Surface plasmon resonance follows binding to a sensor surface in real time, without labels.

Numbering of substitutions follows the chain as printed. Like-named read-outs stand apart in the source and are kept apart here.

B1: huB8G11F2B7G5E8-V14 (antibody, human IgG4 S228P, kappa, V domains shown)
VH: EVQLVQSGAEVKKPGATVKISCKVSGFNIKDTYMHWVKQAPGKGLEWMGRIDPTNGYTIYASKFQGKATITADTSSNTAYMELSSLRSEDTAVYHCVSRRPWFAYWGQGTLVTVSS
VL: DIVMTQTPLSLSVTPGQPASISCRSSQSIVHSNGNTYLEWYLQKPGQSPQLLIYKVTNRFSGVPDRFSGSGSGTDFTLKISRVEAEDVGVYYCFQGSHVPYTFGQGTKLEIKR
notes: Humanized, human IgG4/kappa; also called huBSG11F2B7G5E8-V14
One may read the IC50 as the concentration that gives 50% inhibition. The EC50 is the midpoint of the concentration-response curve. By Kd is commonly meant the equilibrium constant for the complex coming apart. A word on the koff: it is the first-order rate constant of dissociation. For orientation: kon means the second-order rate constant of association. On to B1, for which the IC50 was 1.02 nM in assay [1]; 0.601 nM in assay [2]; 1.02 nM in assay [3]; 0.763 nM in assay [8]; 0.6 nM in assay [9]; 0.76 nM in assay [15]. The EC50 was 137 nM in assay [4]; 0.52 nM in [5]; 0.517 nM in assay [6]; 1.06 nM in [10]; 0.237 nM in assay [11]; 1.06 nM in [13]. The EC50 in assay [14] amounted to 137 nM; in [16], 0.24 nM. Besides, the “Inhibition on IL4 induced STAT6 phosphorylation (IC50, nM)” value in assay [7] is 0.26 nM. The “Inhibition on IL13 induced STAT6 phosphorylation (IC50, nM)” value in assay [7] is 0.66 nM. The results for the Kd in [12] and in assay [17] were 3.88 nM and 3.69 nM, respectively. For the same molecule, the koff in [17] is 0.00113 s⁻¹. Moreover, in assay [17], the kon worked out at 306000 M⁻¹ s⁻¹.

B2: huB8G11F2B7G5E8-V13 (antibody, human IgG4 S228P, kappa, V domains shown)
VH: QVQLQQSGAELVKPGASVKLSCTASGFNIKDTYMHWVKQRPEQGLEWVGRIDPTNGYTIYASKFQGKATITADTSSNTAYMQLSSLTSEDTAVYHCVSRRPWFAYWGQGTTLTVSS
VL: B1 VL
notes: Humanized, human IgG4/kappa; also called huBSG11F2B7G5E8-V13
For B2, in [17], the Kd was found to be 3.87 nM, the koff was determined as 0.0012 s⁻¹ and the kon was found to be 310000 M⁻¹ s⁻¹.

B3: huB8G11F2B7G5E8-V5 (antibody, human IgG4 S228P, kappa, V domains shown)
VH: B1 VH with V24A, M48V, K67R
VL: B1 VL
notes: Humanized, human IgG4/kappa; also called huBSG11F2B7G5E8-V5
Consider B3, for which, in assay [17], the Kd came out at 4.13 nM, the off-rate (koff) amounted to 0.00241 s⁻¹ and the kon turned out to be 584000 M⁻¹ s⁻¹.

B4: huB8G11F2B7G5E8-V10 (antibody, human IgG4 S228P, kappa, V domains shown)
VH: B1 VH with V24A, M48V, K67R, A68V, S76T
VL: B1 VL
notes: Humanized, human IgG4/kappa; also called huBSG11F2B7G5E8-V10
Regarding B4, in [17], the Kd turned out to be 4.79 nM, the dissociation rate constant (koff) amounted to 0.0028 s⁻¹ and the kon was found to be 585000 M⁻¹ s⁻¹.

B5: huB8G11F2B7G5E8-V3 (antibody, human IgG4 S228P, kappa, V domains shown)
VH: B1 VH with V24A, K38Q, M48V
VL: B1 VL
notes: Humanized, human IgG4/kappa; also called huBSG11F2B7G5E8-V3
On to B5, for which, in assay [17], the Kd came to 3.57 nM, the koff is 0.00199 s⁻¹ and the kon is 558000 M⁻¹ s⁻¹.

B6: huB8G11F2B7G5E8-V9 (antibody, human IgG4 S228P, kappa, V domains shown)
VH: B1 VH with V24A, M48V, H95Y
VL: B1 VL
notes: Humanized, human IgG4/kappa; also called huBSG11F2B7G5E8-V9
Turning to B6, in assay [17], the Kd came out at 5.32 nM, the koff turned out to be 0.00331 s⁻¹ and the kon was determined as 621000 M⁻¹ s⁻¹.

B7: huB8G11F2B7G5E8-V11 (antibody, human IgG4 S228P, kappa, V domains shown)
VH: B1 VH with K38Q, R50L, S62E, K67R, A68V, S76T, N77D, H95Y
VL: B1 VL
notes: Humanized, human IgG4/kappa; also called huBSG11F2B7G5E8-V11
Regarding B7, the Kd in assay [17] was found to be 14.9 nM.

B8: huB8G11F2B7G5E8-V7 (antibody, human IgG4 S228P, kappa, V domains shown)
VH: B1 VH with V24A, M48V, S76T
VL: B1 VL
notes: Humanized, human IgG4/kappa; also called huBSG11F2B7G5E8-V7
For B8, in assay [17], the Kd was 3.75 nM, the koff is 0.00222 s⁻¹ and the kon was found to be 592000 M⁻¹ s⁻¹.

B9: huB8G11F2B7G5E8-V8 (antibody, human IgG4 S228P, kappa, V domains shown)
VH: B1 VH with V24A, M48V, N77D
VL: B1 VL
notes: Humanized, human IgG4/kappa; also called huBSG11F2B7G5E8-V8
On to B9, for which, in assay [17], the Kd was 4.89 nM, the koff was determined as 0.00283 s⁻¹ and the kon came to 578000 M⁻¹ s⁻¹.

B10: huB8G11F2B7G5E8-V6 (antibody, human IgG4 S228P, kappa, V domains shown)
VH: B1 VH with V24A, M48V, A68V
VL: B1 VL
notes: Humanized, human IgG4/kappa; also called huBSG11F2B7G5E8-V6
B10: in [17], the Kd was determined as 3.95 nM, the koff stood at 0.00219 s⁻¹ and the kon is 554000 M⁻¹ s⁻¹.

Values taken from patent US20230105029A1 (CHIA TAI TIANQING PHARMACEUTICAL GROUP, published 2023).
